This assay addresses CagFbFP-I52T-Q148K (Chloroflexus aggregans) (UniProt B8GAY9). Description: crystal structure.

Substance “CagFbFP-I52T-Q148K (from UniProt B8GAY9 47-153) (domain or fragment)” showed a stoichiometry N of 2.

(Values after publication doi:10.1101/2021.01.08.425906.)
